Data: patent publication US7282356B2, “D-aminoacylase mutants” (Daicel Chemical Industries, Ltd., priority 2002, dated 2007)

Legend:
[1] = Third generation mutants: activity of producing D-tryptophan (TNBS method); type: cell-based, E. coli JM109; settings: 2% N-acetyl-DL-tryptophan, 3.5% N-acetyl-L-tryptophan, 25° C., 30 minutes
Excerpt: (§1) The amino acid substitution in each mutant, and the effect of the amino acid substitution, which was estimated as an activity of producing D-tryptophan in the presence of 5% N-acetyl-DL-tryptophan and 2% N-acetyl-L-tryptophan, are shown in Table 2. The “activity”, as used herein, refers to “a colorimetric value of the reaction solution determined at the end of reaction by the TNBS method (Abs. 420)/the degree of bacterial growth (OD600)”.
Cells of the E. coli transformant obtained in Example 9 were inoculated on an LB agar plate. Each colony grown on the plate was inoculated with a toothpick to a well of a microtiter plate which contained 150 μl of LB culture medium containing 50 μg/ml ampicillin and 0.02 mM IPTG, and then the microtiter plate was covered with Breathable Sealing Membrane (Nalgene). The microtiter plate was incubated at 37° C. for 18 hours while being shaken. 10 μl of the culture medium solution was added to the reaction solution containing 300 mM Tris-hydrochloride buffer (pH 8.0), 0.1% cetylpyridinium bromide, 2% N-acetyl-DL-tryptophan, 3.5% N-acetyl-L-tryptophan, and distilled water in the wells of a microtiter plate. The plate was incubated at 25° C. for 30 minutes while being shaken. Then, D-tryptophan produced from N-acetyl-D-tryptophan was quantified by colorimetry according to the TNBS method using D-tryptophan as standard. […]

[2] = D-aminoacylase activity assay (20 mM N-acetyl-D-tryptophan, TNBS method); type: biochemical
Protocol: The enzyme reaction can be achieved by incubating 1.0 ml of a reaction solution containing 20 mM N-acetyl-D-tryptophan (Sigma), 50 mM Tris-hydrochloride buffer (pH 7.5), and an enzyme solution at 30° C. for 10 minutes. Then, the reaction is stopped by adding 0.5 ml of a stop solution containing TCA (comprising 0.11 M trichloroacetic acid, 0.22 M sodium acetate, and 0.33 M acetic acid). The amount of D-tryptophan produced can be determined by TNBS method (Biosci. Biotech. Biochem., 58, 24 (1994)).
For example, 0.25 ml of 100 mM Na2B4O7 is added to 0.25 ml of the stop solution, 10 μl of 110 mM TNBS (trinitrobenzenesulfonic acid) solution is added to the mixed solution, and immediately thereafter, the resulting mixture is stirred. After the mixture is allowed to stand for five minutes, 1 ml of 100 mM NaHPO4 containing 1.5 mM Na2SO3 is added to the mixture to stop the color reaction. Then, the absorbance of the solution is determined at 420 nm. One unit of the enzyme activity is defined as the amount of enzyme that catalyzes the production of 1 μmol of D-tryptophan at 30° C. for one minute.

[3] = Activity of the cloned, purified enzyme to N-acetyl-L-tryptophan; type: biochemical; settings: cloned enzyme purified from E. coli
Excerpt: The present inventors focused on the fact that the D-aminoacylase derived from Alcaligenes denitrificans subsp. xylosoxydans MI-4 strain has an exceedingly high specific activity (404 U/mg) to N-acetyl-D-methionine. According to references, the D-aminoacylase had only 20 U/mg or lower activity to N-acetyl-D-tryptophan. The present inventors cloned the gene encoding the enzyme into E. coli, purified the cloned enzyme, and measured its specific activity. […] Thus, this enzyme can be useful to produce D-tryptophan from N-acetyl-DL-tryptophan.

[4] = Reaction of third generation mutants with 7% N-acetyl-DL-tryptophan in microtiter plate; type: cell-based, E. coli HB101; settings: 25° C., 8 hours
Protocol: With a conventional method, recombinant plasmid DNAs were purified from total 10 strains of E. coli JM109 transformant obtained in Example 16. Cells of E. coli HB101 strain were transformed with the recombinant plasmid DNAs to prepare transformants. Each colony grown on a culture plate was inoculated with a toothpick to a well of a microtiter plate which contained 150 μl of LB culture medium containing 50 μg/ml ampicillin and 0.02 mM IPTG, and then the microtiter plate was covered with Breathable Sealing Membrane (Nalgene). The microtiter plate was incubated at 37° C. for 18 hours while being shaken. The reaction was carried out using total 200 μl of a reaction solution containing 100 μl of culture medium solution, 300 mM Tris-hydrochloride buffer (pH 8.0), 7% N-acetyl-DL-tryptophan, and distilled water in each well of a microtiter plate at 25° C. for 8 hours while being shaken. When all of the N-acetyl-D-tryptophan contained in substrate is converted to D-tryptophan, the yield is taken as 100%. While the yield was about 70% with the wild type, the yield was roughly 100% with a third generation mutant obtained in […]. Thus, the competitive inhibition was confirmed to be impaired in the third generation mutants.

[5] = Second generation mutants: activity of producing D-tryptophan (TNBS Abs. 420 / OD600); type: cell-based, E. coli JM109; settings: 5% N-acetyl-DL-tryptophan and 2% N-acetyl-L-tryptophan
Protocol: Three types of the E. coli transformant libraries obtained in Example 11 were inoculated on an LB agar plate. Each colony grown on the plate was inoculated with a toothpick to a well of a microtiter plate which contained 150 μl of LB culture medium containing 50 μg/ml ampicillin and 0.02 mM IPTG, and then the microtiter plate was covered with Breathable Sealing Membrane (Nalgene). The microtiter plate was incubated at 37° C. for 18 hours while being shaken. 10 μl of the culture medium solution was added to the reaction solution containing 300 mM Tris-hydrochloride buffer (pH 8.0), 0.1% cetylpyridinium bromide, 5% N-acetyl-DL-tryptophan, 1% N-acetyl-L-tryptophan, and distilled water in the wells of a microtiter plate. The plate was incubated at 25° C. for 1 hour while being shaken. Then, D-tryptophan produced from N-acetyl-D-tryptophan was quantified by colorimetry according to the TNBS method. […]
as §1

B1: wild-type: D-aminoacylase derived from Alcaligenes denitrificans subsp. xylosoxydans MI-4, SEQ ID NO: 1 (protein)
chain: MSQSDSQPFDLLLAGGTLIDGSNTPGRRADLGVRGDRIAAIGDLSDAAAHTRVDVSGLVVAPGFIDSHTHDDNYLLRRRDMTPKISQGVTTVVTGNCGISLAPLAHANPPAPLDLLDEGGSYRFERFADYLDALRATPAAVNAACMVGHSTLRAAVMPDLQRAATDEEIAAMRDLAEEAMASGAIGISTGAFYPPAARATTEEIIEVCRPLSAHGGIYATHMRDEGEHIVAALEETFRIGRELDVPVVISHHKVMGQPNFGRSRETLPLIEAAMARQDVSLDAYPYVAGSTMLKQDRVLLAGRTIITWCKPFPELSGRDLDEVAAERGKSKYDVVPELQPAGAIYFMMDEPDVQRILAFGPTMIGSDGLPHDERPHPRLWGTFPRVLGHYARDLGLFPLETAVWKMTGLTAARFGLAGRGQLQAGYFADLVVFDPATVADTATFEHPTERAAGIHSVYVNGAPVWQEQAFTGQHAGRVLARTAA
modifications: Alcaligenes denitrificans subsp. xylosoxydans MI-4
- Activity of producing D-tryptophan [1]: 2.65
- D-aminoacylase activity of cell extract ([2]; cell extract of E. coli JM109 transformant): 34 U/mg
- specific activity of the purified enzyme ([2]; purified enzyme, N-acetyl-D-tryptophan): 528 U/mg
- activity to N-acetyl-L-tryptophan [3]: inactive
- yield [4]: about 70%
- Activity of producing D-tryptophan [5]: 2.58
